Test results reported in publication PMC8956657 (Nature Communications, 2022).
Where no end group is shown, it is not given here.

Legend:
Experiment in all cases: fluorescence polarisation
Conditions in all cases: both partners purified
[1] = target: T1, IMPα3 lacking the IBB domain (residues 64-521) (UniProt O00629 64-521)
T1 construct: also called ΔIBB-IMPα3; KPNA4
T1 sequence (looked up): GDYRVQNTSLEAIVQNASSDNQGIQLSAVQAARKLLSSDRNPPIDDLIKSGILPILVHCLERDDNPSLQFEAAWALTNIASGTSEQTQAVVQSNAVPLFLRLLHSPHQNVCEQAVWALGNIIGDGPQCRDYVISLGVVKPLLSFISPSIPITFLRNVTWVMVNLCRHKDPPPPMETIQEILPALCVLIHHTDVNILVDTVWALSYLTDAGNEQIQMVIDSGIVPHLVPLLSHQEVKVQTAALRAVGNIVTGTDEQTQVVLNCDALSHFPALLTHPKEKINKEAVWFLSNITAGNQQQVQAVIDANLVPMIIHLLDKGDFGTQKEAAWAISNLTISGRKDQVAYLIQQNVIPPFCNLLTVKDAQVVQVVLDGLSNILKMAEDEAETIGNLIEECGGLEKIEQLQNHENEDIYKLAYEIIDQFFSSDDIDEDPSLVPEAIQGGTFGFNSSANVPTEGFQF

[2] = target: T2, IMPα5 lacking the IBB domain (residues 73-538) (UniProt P52294 73-538)
T2 construct: also called ΔIBB-IMPα5; importin alpha 5

[3] = target: IMPα1 lacking the IBB domain (residues 70-529) (UniProt P52292 70-529)
[4] = target: T3, IMPα7 lacking the IBB domain (residues 73-536) (UniProt O60684 73-536)
T3 construct: also called ΔIBB-IMPα7; importin alpha 7
T3 sequence (O60684 73-536): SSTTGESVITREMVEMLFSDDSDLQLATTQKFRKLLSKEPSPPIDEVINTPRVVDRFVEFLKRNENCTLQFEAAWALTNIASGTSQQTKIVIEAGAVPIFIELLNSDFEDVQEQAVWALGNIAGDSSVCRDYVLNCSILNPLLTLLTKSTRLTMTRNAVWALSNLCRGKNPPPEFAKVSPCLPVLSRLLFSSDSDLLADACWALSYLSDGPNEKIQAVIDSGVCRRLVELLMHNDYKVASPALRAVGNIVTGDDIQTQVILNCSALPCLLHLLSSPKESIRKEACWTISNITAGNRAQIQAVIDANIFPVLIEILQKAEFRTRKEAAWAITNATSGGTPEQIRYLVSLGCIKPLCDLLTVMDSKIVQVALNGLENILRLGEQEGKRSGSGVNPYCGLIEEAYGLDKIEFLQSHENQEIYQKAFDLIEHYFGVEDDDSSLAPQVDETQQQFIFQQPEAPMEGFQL

T2 sequence (P52294 73-538): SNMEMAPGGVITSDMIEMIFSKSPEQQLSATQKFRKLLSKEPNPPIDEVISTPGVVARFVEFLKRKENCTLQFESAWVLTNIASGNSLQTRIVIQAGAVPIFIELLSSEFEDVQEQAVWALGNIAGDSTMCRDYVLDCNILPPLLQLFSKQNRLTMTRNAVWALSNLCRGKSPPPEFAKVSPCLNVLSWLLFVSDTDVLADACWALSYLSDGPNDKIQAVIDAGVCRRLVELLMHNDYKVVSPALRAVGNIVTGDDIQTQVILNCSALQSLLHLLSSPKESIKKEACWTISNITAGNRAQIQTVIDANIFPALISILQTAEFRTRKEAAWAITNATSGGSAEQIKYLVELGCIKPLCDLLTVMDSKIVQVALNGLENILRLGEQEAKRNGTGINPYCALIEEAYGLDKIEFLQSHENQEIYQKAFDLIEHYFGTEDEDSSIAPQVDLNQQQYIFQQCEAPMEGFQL

RKARKRSHSPTKKLRYVKRRF (also: FITC-tagged) [FITC-tagged MERS-CoV ORF4b NLS peptide (residues 19-39), wild type]
Kd [1]: 1.4 nM | binding result [2]: binds | Kd [3]: 2.5 nM | Kd [4]: 1.9 nM
